Laboratory results as given in EP2966448B1, “METHOD FOR THE PREDICTION OR PROGNOSIS OF THE RESPONSE OF A HUMAN SUBJECT SUFFERING FROM CANCER TO TREATMENT WITH AN ANTAGONIST OF THE NK1 RECEPTOR” (priority 2013, dated 2014).

Biological target: NK1 receptor (human) (UniProt P25103)
Assay: cell-based or functional assay

NK1 receptor (human), sequence (P25103 87-407): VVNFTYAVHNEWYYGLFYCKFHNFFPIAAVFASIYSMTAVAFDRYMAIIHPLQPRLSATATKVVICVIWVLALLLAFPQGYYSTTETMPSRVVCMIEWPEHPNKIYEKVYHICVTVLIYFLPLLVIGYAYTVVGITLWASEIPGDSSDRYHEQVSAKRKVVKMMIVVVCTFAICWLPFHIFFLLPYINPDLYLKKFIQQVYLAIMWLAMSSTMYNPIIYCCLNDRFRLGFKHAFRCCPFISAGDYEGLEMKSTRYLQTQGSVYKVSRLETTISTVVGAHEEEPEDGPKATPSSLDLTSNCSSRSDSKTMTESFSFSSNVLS

anti-NK1 antibody (S8305, Sigma-Aldrich)
22%: Percentage of inhibition of cell cultures; Gastric carcinoma (Adenocarcinoma); low expression of the truncated form of NK1 receptor (Group A)
97%: Percentage of inhibition of cell cultures; Lung carcinoma (non small cell lung carcinoma); cases with amplification of the gene that encodes for the NK1 receptor | Percentage of inhibition of cell cultures; Melanoma (Nodular Melanoma); cases with amplification of the gene that encodes for the NK1 receptor
27%: Percentage of inhibition of cell cultures; Carcinoma of the uterine cervix (Squamous cell carcinoma); cases without amplification of the gene that encodes for the NK1 receptor
25%: Percentage of inhibition of cell cultures; Burkitt Lymphoma; cases without amplification of the gene that encodes for the NK1 receptor | Percentage of inhibition of cell cultures; Gastric carcinoma (Adenocarcinoma); cases without amplification of the gene that encodes for the NK1 receptor | Percentage of inhibition of cell cultures; Glioma (astrocytoma); cases without amplification of the gene that encodes for the NK1 receptor | Percentage of inhibition of cell cultures; Lung carcinoma (non small cell lung carcinoma); cases without amplification of the gene that encodes for the NK1 receptor | Percentage of inhibition of cell cultures; Lung carcinoma (small cell lung carcinoma); low expression of the truncated form of NK1 receptor (Group A)
94%: Percentage of inhibition of cell cultures; Breast carcinoma (ductal adenocarcinoma); high expression of the truncated form of NK1 receptor (Group B) | Percentage of inhibition of cell cultures; Carcinoma of the uterine cervix (Squamous cell carcinoma); cases with amplification of the gene that encodes for the NK1 receptor | Percentage of inhibition of cell cultures; Colon carcinoma (Adenocarcinoma); high expression of the truncated form of NK1 receptor (Group B) | Percentage of inhibition of cell cultures; Endometrium carcinoma; high expression of the truncated form of NK1 receptor (Group B)
28%: Percentage of inhibition of cell cultures; Endometrium carcinoma; cases without amplification of the gene that encodes for the NK1 receptor
95%: Percentage of inhibition of cell cultures; Carcinoma of the uterine cervix (Squamous cell carcinoma); high expression of the truncated form of NK1 receptor (Group B) | Percentage of inhibition of cell cultures; Gastric carcinoma (Adenocarcinoma); cases with amplification of the gene that encodes for the NK1 receptor | Percentage of inhibition of cell cultures; Glioma (astrocytoma); cases with amplification of the gene that encodes for the NK1 receptor | Percentage of inhibition of cell cultures; Lung carcinoma (non small cell lung carcinoma); high expression of the truncated form of NK1 receptor (Group B) | Percentage of inhibition of cell cultures; Lung carcinoma (small cell lung carcinoma); cases with amplification of the gene that encodes for the NK1 receptor
26%: Percentage of inhibition of cell cultures; Breast carcinoma (ductal adenocarcinoma); cases without amplification of the gene that encodes for the NK1 receptor | Percentage of inhibition of cell cultures; Burkitt Lymphoma; low expression of the truncated form of NK1 receptor (Group A) | Percentage of inhibition of cell cultures; Endometrium carcinoma; low expression of the truncated form of NK1 receptor (Group A) | Percentage of inhibition of cell cultures; Lung carcinoma (non small cell lung carcinoma); low expression of the truncated form of NK1 receptor (Group A) | Percentage of inhibition of cell cultures; Lung carcinoma (small cell lung carcinoma); cases without amplification of the gene that encodes for the NK1 receptor | Percentage of inhibition of cell cultures; Melanoma (Nodular Melanoma); cases without amplification of the gene that encodes for the NK1 receptor | Percentage of inhibition of cell cultures; Melanoma (Nodular Melanoma); low expression of the truncated form of NK1 receptor (Group A)
24%: Percentage of inhibition of cell cultures; Breast carcinoma (ductal adenocarcinoma); low expression of the truncated form of NK1 receptor (Group A) | Percentage of inhibition of cell cultures; Carcinoma of the uterine cervix (Squamous cell carcinoma); low expression of the truncated form of NK1 receptor (Group A) | Percentage of inhibition of cell cultures; Colon carcinoma (Adenocarcinoma); cases without amplification of the gene that encodes for the NK1 receptor | Percentage of inhibition of cell cultures; Colon carcinoma (Adenocarcinoma); low expression of the truncated form of NK1 receptor (Group A) | Percentage of inhibition of cell cultures; Glioma (astrocytoma); low expression of the truncated form of NK1 receptor (Group A)
96%: Percentage of inhibition of cell cultures; Breast carcinoma (ductal adenocarcinoma); cases with amplification of the gene that encodes for the NK1 receptor | Percentage of inhibition of cell cultures; Burkitt Lymphoma; cases with amplification of the gene that encodes for the NK1 receptor | Percentage of inhibition of cell cultures; Burkitt Lymphoma; high expression of the truncated form of NK1 receptor (Group B) | Percentage of inhibition of cell cultures; Colon carcinoma (Adenocarcinoma); cases with amplification of the gene that encodes for the NK1 receptor | Percentage of inhibition of cell cultures; Endometrium carcinoma; cases with amplification of the gene that encodes for the NK1 receptor | Percentage of inhibition of cell cultures; Gastric carcinoma (Adenocarcinoma); high expression of the truncated form of NK1 receptor (Group B) | Percentage of inhibition of cell cultures; Glioma (astrocytoma); high expression of the truncated form of NK1 receptor (Group B) | Percentage of inhibition of cell cultures; Lung carcinoma (small cell lung carcinoma); high expression of the truncated form of NK1 receptor (Group B) | Percentage of inhibition of cell cultures; Melanoma (Nodular Melanoma); high expression of the truncated form of NK1 receptor (Group B)
